Where two headings read alike, the source gives them in different places.
Key:
[1] = target: T1, human Fibroblast Activation Protein (FAP), cell-surface-expressed on NIH/3T3-huFAP clone 19 cells (human, UniProt Q12884 1-760); test: flow cytometry, NIH/3T3-huFAP clone 19 cells, PE anti-human Fc detection
T1 construct: also called FAP-expressing cells
Method: (§1) Plates were incubated for 30 minutes at 4° C. and washed once with 200 μL, 4° C. cold DPBS buffer. […] Cells were washed twice with 200 μL 4° C. DPBS buffer and then resuspended in 50 μL/well DPBS containing 1% Formaldehyde for fixation. The same or the next day cells were resuspended in 100 μL FACS-buffer and acquired using MACSQuant Analyzer 10 (Miltenyi Biotec) or Canto II (BD).

[2] = target: T2, human 4-1BB (CD137), cell-surface-expressed on Jurkat-hu4-1BB-NFkB-luc2 reporter cell line (human, UniProt Q07011 24-186); test: cell-based or functional assay; design: AUC of activation curve, NFκB-luciferase in Jurkat-hu4-1BB-NFκB-luc2, crosslinking by WM-266-4 cells: unit not given beside the values
[3] = target: T2, human 4-1BB (CD137), …; test: flow cytometry, Jurkat-hu4-1BB-NFkB-luc2 cells, gMFI curve
Method: (§2) For binding to cell-surface-expressed human 4-1BB (CD137) Jurkat-hu4-1BB-NFκB-luc2 reporter cell line (Promega, Germany) was used. […] Plates were incubated for 30 minutes at 4° C. and washed once with 200 μL 4° C. cold DPBS buffer. […] Cells were washed twice with 200 μL 4° C. FACS buffer and then resuspended in 50 μL/well DPBS containing 1% Formaldehyde for fixation. The same or the next day cells were resuspended in 100 μL FACS-buffer and acquired using MACSQuant Analyzer 10 (Miltenyi Biotec) or Cantoll (BD).

[4] = target: T2, human 4-1BB (CD137), …; test: flow cytometry, Jurkat-hu4-1BB-NFkB-luc2 cells, PE anti-human Fc detection
Method: as §2

[5] = target: T2, human 4-1BB (CD137), …; test: cell-based or functional assay
[6] = target: T1, human Fibroblast Activation Protein …; test: flow cytometry, NIH/3T3-huFAP clone 19 cells, gMFI curve
Method: as §1

[7] = target: T2, human 4-1BB (CD137), …; test: flow cytometry, Jurkat-hu4-1BB-NFkB-luc2 cells, PE anti-human Fc detection; remark: listed apart in the source
Method: (§3) For binding to cell-surface-expressed human 4-1BB (CD137) Jurkat-hu4-1BB-NFkB-luc2 reporter cell line (Promega, Germany) was used. […] Plates were incubated for 30 minutes at 4° C. and washed once with 200 μL 4° C. cold DPBS buffer. […] Cells were washed twice with 200 μL 4° C. FACS buffer and then resuspended in 50 DPBS containing 1% Formaldehyde for fixation.

[8] = target: T2, human 4-1BB (CD137), …; test: flow cytometry, Jurkat-hu4-1BB-NFkB-luc2 cells, gMFI curve; remark: listed apart in the source
Method: as §3

[9] = target: T2, human 4-1BB (CD137), …; test: cell-based or functional assay; remark: listed apart in the source
[10] = target: T2, human 4-1BB (CD137), …; test: cell-based or functional assay; design: unit not given beside the values

| Binder | EC50 [1] | AUC of activation curve, NFκB-luciferase in Jurkat-hu4-1BB-NFκB-luc2, crosslinking by NIH/3T3-huFAP clone 19 cells [2] | AUC of activation curve, NFκB-luciferase in Jurkat-hu4-1BB-NFκB-luc2, crosslinking by WM-266-4 cells [2] | Area under the curve (AUC) of binding curve [3] | EC50 [4] | EC50 of activation curve, NFκB-luciferase in Jurkat-hu4-1BB-NFκB-luc2, crosslinking by NIH/3T3-huFAP clone 19 cells [5] | EC50 of activation curve, NFκB-luciferase in Jurkat-hu4-1BB-NFκB-luc2, crosslinking by WM-266-4 cells [5] | Area under the curve (AUC) of binding curve [6] | EC50 [7] | Area under the curve (AUC) of binding curve [8] | EC50 of activation curve, NFκB-luciferase in Jurkat-hu4-1BB-NFκB-luc2, crosslinking by KPL4 cells [9] | EC50 of activation curve, NFκB-luciferase in Jurkat-hu4-1BB-NFκB-luc2, crosslinking by NCI-N87 cells [9] | EC50 of activation curve, NFκB-luciferase in Jurkat-hu4-1BB-NFκB-luc2, crosslinking by SK-Br3 cells [9] | AUC of activation curve, NFκB-luciferase in Jurkat-hu4-1BB-NFκB-luc2, crosslinking by KPL4 cells [10] | AUC of activation curve, NFκB-luciferase in Jurkat-hu4-1BB-NFκB-luc2, crosslinking by NCI-N87 cells [10] | AUC of activation curve, NFκB-luciferase in Jurkat-hu4-1BB-NFκB-luc2, crosslinking by SK-Br3 cells [10] |
| --- | --- | --- | --- | --- | --- | --- | --- | --- | --- | --- | --- | --- | --- | --- | --- | --- |
| bispecific, monovalent 1+2 anti-FAP, anti-4-1BB lipocalin huIgG1 PGLALA antigen binding molecule (bispecific antibody, also called FAP (4B9) x 4-1BB lipocalin huIgG1 PG LALA 1+2; 1+2 FAP(4B9) x 4-1BB lipocalin huIgG1 PGLALA) heavy 1: DKTHTCPPCPAPEAAGGPSVFLFPPKPKDTLMISRTPEVTCVVVDVSHEDPEVKFNWYVDGVEVHNAKTKPREEQYNSTYRVVSVLTVLHQDWLNGKEYKCKVSNKALGAPIEKTISKAKGQPREPQVCTLPPSRDELTKNQVSLSCAVKGFYPSDIAVEWESNGQPENNYKTTPPVLDSDGSFFLVSKLTVDKSRWQQGNVFSCSVMHEALHNHYTQKSLSLSPGGGGGSGGGGSGGGGSQDSTSDLIPAPPLSKVPLQQNFQDNQFHGKWYVVGQAGNIRLREDKDPIKMMATIYELKEDKSYDVTMVKFDDKKCMYDIWTFVPGSQPGEFTLGKIKSFPGHTSSLVRVVSTNYNQHAMVFFKFVFQNREEFYITLYGRTKELTSELKENFIRFSKSLGLPENHIVFPVPIDQCIDG heavy 2: not shown light: EIVLTQSPGTLSLSPGERATLSCRASQSVTSSYLAWYQQKPGQAPRLLINVGSRRATGIPDRFSGSGSGTDFTLTISRLEPEDFAVYYCQQGIMLPPTFGQGTKVEIKRTVAAPSVFIFPPSDEQLKSGTASVVCLLNNFYPREAKVQWKVDNALQSGNSQESVTEQDSKDSTYSLSSTLTLSKADYEKHKVYACEVTHQGLSSPVTKSFNRGEC | 2.88 nM | 93200 | 37400 | 681 | 2.39 nM | 0.02 nM | 0.07 nM | 32500 | – | – | – | – | – | – | – | – |
| bispecific, bivalent 2+2 anti-FAP, anti-4-1BB lipocalin huIgG1 PGLALA antigen binding molecule (bispecific antibody, also called FAP (4B9) x 4-1BB lipocalin huIgG1 PG LALA 2+2; 2+2 FAP(4B9) x 4-1BB lipocalin huIgG1 PGLALA) heavy: not shown light: EIVLTQSPGTLSLSPGERATLSCRASQSVTSSYLAWYQQKPGQAPRLLINVGSRRATGIPDRFSGSGSGTDFTLTISRLEPEDFAVYYCQQGIMLPPTFGQGTKVEIKRTVAAPSVFIFPPSDEQLKSGTASVVCLLNNFYPREAKVQWKVDNALQSGNSQESVTEQDSKDSTYSLSSTLTLSKADYEKHKVYACEVTHQGLSSPVTKSFNRGEC | 2.01 nM | 65500 | 20400 | 746 | 2.09 nM | 0.04 nM | 0.02 nM | 28800 | – | – | – | – | – | – | – | – |
| 2+2 FAP(4B9) x 4-1BB lipocalin huIgG4 SP molecule (bispecific antibody, Comparison molecule; also called FAP (4B9) x 4-1BB lipocalin huIgG4 SP 2+2; FAP (4B9) anti-4-1BB lipocalin huIgG4 SP 2+2) heavy: not shown light: EIVLTQSPGTLSLSPGERATLSCRASQSVTSSYLAWYQQKPGQAPRLLINVGSRRATGIPDRFSGSGSGTDFTLTISRLEPEDFAVYYCQQGIMLPPTFGQGTKVEIKRTVAAPSVFIFPPSDEQLKSGTASVVCLLNNFYPREAKVQWKVDNALQSGNSQESVTEQDSKDSTYSLSSTLTLSKADYEKHKVYACEVTHQGLSSPVTKSFNRGEC | 1.19 nM | 55200 | 11700 | 694 | 1.72 nM | 0.12 nM | 0.02 nM | 21000 | – | – | – | – | – | – | – | – |
| bispecific, monovalent 1+2 anti-HER2, anti-4-1BB lipocalin huIgG1 PGLALA antigen binding molecule (bispecific antibody, also called HER2 (TRAS) x 4-1BB lipocalin huIgG1 PG LALA 1+2; 1+2 HER2 x 4-1BB lipocalin huIgG1 PGLALA) heavy 1: DKTHTCPPCPAPEAAGGPSVFLFPPKPKDTLMISRTPEVTCVVVDVSHEDPEVKFNWYVDGVEVHNAKTKPREEQYNSTYRVVSVLTVLHQDWLNGKEYKCKVSNKALGAPIEKTISKAKGQPREPQVCTLPPSRDELTKNQVSLSCAVKGFYPSDIAVEWESNGQPENNYKTTPPVLDSDGSFFLVSKLTVDKSRWQQGNVFSCSVMHEALHNHYTQKSLSLSPGGGGGSGGGGSGGGGSQDSTSDLIPAPPLSKVPLQQNFQDNQFHGKWYVVGQAGNIRLREDKDPIKMMATIYELKEDKSYDVTMVKFDDKKCMYDIWTFVPGSQPGEFTLGKIKSFPGHTSSLVRVVSTNYNQHAMVFFKFVFQNREEFYITLYGRTKELTSELKENFIRFSKSLGLPENHIVFPVPIDQCIDG heavy 2: not shown light: not shown | – | – | – | – | – | – | – | – | 6.95 nM | 2100 | 0.19 nM | 0.15 nM | 0.33 nM | 11400 | 12100 | 3960 |
| FAP (4B9) huIgG1 PG LALA antibody (antibody, V domains shown, the control is a human IgG1 with P329G, L234A, L235A (PG LALA)) VH: EVQLLESGGGLVQPGGSLRLSCAASGFTFSSYAMSWVRQAPGKGLEWVSAIIGSGASTYYADSVKGRFTISRDNSKNTLYLQMNSLRAEDTAVYYCAKGWFGGFNYWGQGTLVTVSS VL: EIVLTQSPGTLSLSPGERATLSCRASQSVTSSYLAWYQQKPGQAPRLLINVGSRRATGIPDRFSGSGSGTDFTLTISRLEPEDFAVYYCQQGIMLPPTFGQGTKVEIK | 1.59 nM | 521 | 384 | 75 | – | – | – | 30400 | – | – | – | – | – | – | – | – |

— patent US20220025069A1 (Hoffmann-La Roche, published 2022)
